Assay results published in the RNAGym collection of RNA variant scans (doi:10.1073/pnas.2313332121).

B1: TPR t1 (parent)
chain: GACCAAUCUGCCCUCAGAGCUCGAGAACAUCUUCGGAUGCAGAGGAGGCAGGCUUCGGUGGCGCGAUAGCGCCAACGUCCUCAACCUCCAAUGCAUCCCACCACAUGAUGAUGCCUGAAGAGCCUUGGUUUUUUG

Variants of: B1
Assay: polymerase ribozyme fitness, log enrichment relative to wild type (log ratio); higher = more active; in vitro selection for triplet polymerase activity
Procedure, shortened: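 Only genotypes with ≥10 input reads and ≥1 read per output were kept after Illumina sequencing of input and output libraries. These libraries were PCR-built, transcribed mutants of each subunit of a heterodimeric triplet polymerase ribozyme, each put through one triplicate in vitro selection round with frozen incubation at −7 °C, gel excision of extended constructs, streptavidin-bead capture and RT-PCR. Fitness is a logarithmic ratio of genotype enrichment to wild-type enrichment, from inverse-variance-weighted replicate averages, with the logarithm in base 2.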

| Variant | polymerase ribozyme fitness (log ratio) |
| --- | --- |
| C8U C79A | -0.138 |
| C8U C124G | 2.32 |
| U9A C20G C64A U112A G128A | -5.8 |
| C8U U96A C123G | 1.65 |
| C8U G60C U129C | -0.854 |
| C8U C70U G110A | -1.5 |
| C8U G44U | -1.28 |
| U9A C62G C97U U109G | -7.26 |
| C8U C85A A91U | -1.64 |
| U9A C89G | -2.53 |
| C8U G10A A95C U130G | -1.3 |
| U9A C40G G113A | -0.901 |
| C8U G48A G57C G60U C82A G127A | -1.38 |
| C8U C28G C70A U131A | -4.27 |
| U9A C12A C124U | 2.01 |
| U9A A16U A43U A91G | -0.987 |
| C8U G63A | 0.00664 |
| C8U G63C | 0.00815 |
| C8U C40G G61A G120A | 1.65 |
| C8U U14C A75U G120A | 1.44 |
| U9A A26U C101G | -4.48 |
| C8U C12U C88G | -0.238 |
| U9A G19C C85A U112A | -0.364 |
| C8U G61A A95U G120A | 1.6 |

| Variant | polymerase ribozyme fitness (log ratio) |
| --- | --- |
| U9A G51U G52U U116A | -3.29 |
| C8U U96A | -0.0448 |
| C8U C56G C64U C80A | -3.18 |
| U9A G39U G48A U109A | -6.15 |
| C8U G42U G48U C79A G122A U132A | -4.72 |
| U9A G42C C62A C101U | -3.42 |
| U9A C12U | -0.242 |
| U9A C62G C79G C115U | -4.57 |
| U9A | 0.517 |
| C8U C62U C86U C101A | -1.69 |
| C8U C56G | -0.121 |
| C8U U54A | 0.528 |
| C8U U21A C56U C114A G128A | -2.5 |
| C8U U130C | 0.805 |
| U9A G45U G113U G122U | -2.61 |
| U9A G65C A111U C123U G128A U133C | -4.71 |
| C8U G48U A50U C86U U96A | -0.998 |
| C8U C97U | -0.0319 |
| C8U C70G U125A U130G | -3.05 |
| C8U C13G G69A C72A | -4.71 |
| C8U C53U C76U | 0.843 |
| C8U G48A | -0.239 |
| U9A A16G A18U A43G C70A C72U | -3.21 |
| C8U C13U A46C U59A G71U C79G A83G U109G U132A | -7.26 |

| Variant | polymerase ribozyme fitness (log ratio) |
| --- | --- |
| U9A C31G | -4.11 |
| U9A G10C U54A C86A G110U U125A | -3.13 |
| C8U U9C G52U U55C U59C | 0.781 |
| C8U C56U C70U C73A | -2.03 |
| C8U C49G U106A G110A | -1.48 |
| U9A G25A | -5.66 |
| U9A C11U C40A U134G | -0.696 |
| U9A G10A A46U G69U C79U C102G | -3.8 |
| U9A A46U A74C C88G | -2.48 |
| U9A G44U C56U G122A | -0.525 |
| C8U G58C U59A G60A | -0.843 |
| C8U C72A A100C U132C | -0.83 |
| C8U G23A U54C C73A | -6.59 |
| C8U G39C G63A U92G | -3.5 |
| C8U G51A A121C U131G | -0.214 |
| C8U C20G A95G G113U G128A | -2.96 |
| U9A C20G U116C | -2.71 |
| C8U C28U C73U | -1.68 |
| C8U C64U C72A U109A | -4.83 |
| U9A C114U G120A C123U | -2.11 |
| C8U U59A G60C G117U U131C | -0.987 |
| C8U U38C C115A | 0.431 |
| U9A C13A C22G G48C G71A | -5.83 |
| U9A C72U | 0.716 |

| Variant | polymerase ribozyme fitness (log ratio) |
| --- | --- |
| C8U C64A U112A | -4.99 |
| C8U G42U C73G | -2.13 |
| C8U U78C U109A | -5.42 |
| C8U C22A G63U U81C A105G | -7.76 |
| C8U C11U | -0.675 |
| U9A C31U G44U G52U G61U A111U | -6.18 |
| C8U C53U U92G U131G | -2.8 |
| C8U C15A A118U A121C | 0.853 |
| U9A G45U | -2.23 |
| C8U G36U G60C | -1.66 |
| U9A G77U | 1.05 |
| U9A G19U C88A C114A | 1.72 |
| U9A G71A | 0.174 |
| C8U G47U G69A U131G | -5.7 |
| U9A C73A A95G C104A G110U | -3.62 |
| U9A A46C A50C G61U C82G | -1.26 |
| C8U G63C C123A U132A | 1.06 |
| C8U C49U | 0.318 |
| C8U C20A | -1.98 |
| C8U C20G | -3.53 |
| C8U C13U G19A C40U C53U U54G A74G U131A | -5.02 |
| U9A C62G C94U | -0.686 |
| C8U G61C | -1.18 |
| C8U G10C C13A C49G C53A C101A U133A | -3 |

| Variant | polymerase ribozyme fitness (log ratio) |
| --- | --- |
| C8U G47U A90G G113C | -2.16 |
| C8U G77A | 0.143 |
| C8U G10A C124A | 2.42 |
| U9A A46U G77C G122A | -0.702 |
| C8U G45C | -0.263 |
| C8U C72U | 0.252 |
| C8U G47C G52A G113A | -3.3 |
| C8U C40A C86A U130C | -2 |
| C8U G63U C102G C114A U125A | -6.46 |
| C8U U9C C12U G71U U132A | 0.729 |
| C8U C13G A29U G122A | -2.49 |
| C8U G128A | -1.25 |
| C8U C22G C104G G117A U125G | -4.71 |
| U9A C40G G42U | -1.9 |
| C8U G44C G63A | -0.547 |
| U9A G51C C86G U87A | -5.3 |
| C8U C72U U78C U81A A83G | -0.492 |
| C8U C53G C56A C86U U96G G117U | -2.48 |
| C8U C123A U132A | 1.43 |
| U9A G77U U131A | 0.362 |
| C8U G39A | 0.0776 |
| C8U G39U | 0.386 |
| U9A C40G | 0.644 |
| C8U C98U | -1.28 |

| Variant | polymerase ribozyme fitness (log ratio) |
| --- | --- |
| C8U U106A G127U | 0.137 |
| U9A A27G C114U | -1.28 |
| U9A C34G C76G C85G | -6.38 |
| U9A G58C A66G C85U | -0.571 |
| U9A A26C C40U U87C U125G | -5.19 |
| C8U C76A A118G | -0.712 |
| U9A G58A G61A C85A | -1.75 |
| C8U U14A G36A C72U | -2.09 |
| U9A C114U | -0.999 |
| C8U G47A | -0.477 |
| C8U G45A G52C C72A C123G | 1.37 |
| U9A C53U C123G | 1.66 |
| C8U U38A C70U | -1.62 |
| U9A G77U C123U | 1.84 |
| C8U G45A G52C C123G | -0.41 |
| U9A C104A | -0.737 |
| C8U C12U | 0.659 |
| U9A A18U C64U U92C | -3 |
| U9A G19C A27G U106C | -4.96 |
| C8U U9C C12U G17A G19A G44U C114G | -5.67 |
| C8U C11U G19A C73A A74C C86A | -3.7 |
| C8U C73A A84U G128A | -1.97 |
| U9A C22A C89A G113U A118U G135U | -5.73 |
| C8U C34A G35U G63U C82U G120A U130A | -4.37 |

| Variant | polymerase ribozyme fitness (log ratio) |
| --- | --- |
| C8U C86A | -1.13 |
| C8U C53A G117A U130G | -0.499 |
| C8U U9C G52U U55C | -0.0264 |
| U9A C12A C13A A18G A100U | -6.25 |
| C8U U55C C73A C76G A121U | 1.02 |
| C8U C22G G39C | -4.04 |
| U9A C20G C72U U96G C124U | -3.12 |
| C8U C11U U38G A43G C104U | -2.94 |
| U9A G48U A50U G60A C86G | -1.49 |
| C8U C22G C64U U112A U125A U130C | -2.33 |
| U9A C12U A27C C53U | -2.63 |
| U9A A46G C53G G113U | -1.54 |
| U9A C70U C88A C101U U132A | -0.202 |
| C8U G36U G58C A91C U96C A111U A121U | -5.93 |
| U9A G17U C62A C88U A91G U132A | -4.47 |
| C8U C12U G57C A90U | -0.755 |
| U9A G110A A111U C115U | -6.7 |
| C8U G45A C72G | -0.658 |
| U9A C70U A74G C104A C123A | -3.22 |
| C8U U55G G77U G113C | -1.83 |
| U9A G48C C72U U78C C86A C101A C114U C124U | -3.88 |
| U9A G39A | 0.185 |
| C8U U38G C72A U92A C115G | -5.69 |
